Experimental data reported in US20210009671A1.

Target: Recombinant human TNFα (R&D Systems) (human) (UniProt P01375)
Sequence (P01375 77-233 limits assumed): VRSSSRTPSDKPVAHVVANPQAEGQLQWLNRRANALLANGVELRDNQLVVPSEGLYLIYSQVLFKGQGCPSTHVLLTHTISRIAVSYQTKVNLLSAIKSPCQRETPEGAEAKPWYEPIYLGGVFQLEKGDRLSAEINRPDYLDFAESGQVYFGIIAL

## etanercept (Fc fusion)
  IC50, TNFα-induced Caspase 3 activity in U937 cells: 0.144 nM
